Laboratory results from publication PMC10303687 (2023).

T1: p63_Dr (zebrafish, UniProt E9QG65)
T1 chain: GQDVLNQLLEML

T2: p53_Dr (Danio rerio (Zebrafish) (Brachydanio …, UniProt P79734))
T2 chain: DSQEFAELWEKNL

T3: p73_Dr (zebrafish, UniProt A0A8M2BER5)
T3 chain: EGPTFEHLWSTL

T4: p53_Gg (Gallus gallus (Chicken), UniProt P10360)
T4 chain: EPTEVFMDLWSML


Assays:
Experiment in all cases: stopped flow koff/kon 10 C
p63_Dr = target: T1, p63_Dr
p53_Dr = target: T2, p53_Dr
p73_Dr = target: T3, p73_Dr
p53_Gg = target: T4, p53_Gg

Kd (p63_Dr) [nM] | Kd (p53_Dr) [nM] | Kd (p73_Dr) [nM] | Kd (p53_Gg) [nM] | Binder
130000 | 1900 | 120 | – | MDM2_Dr (protein) SQISKVDNEKLVRPKVQLKSLLEDAGADKDVFTMKEVMFYLGKYIMSKELYDKQQQHIVHCGEDPLGAVLGVKSFSVKEPRALFALINRNLVTVK
– | – | – | 90 | MDM2_Gg (protein) SPVSASEQEALVKPKPLLLKLLKLAGAEKDTFTMKEVIFYLGQYIMSKQLYDEKEQHIVHCANDLLGDLFGVTSFSVKEHRRIYSMISRNLIAIN
